From paper PMC5853461, “Transcription factor CitERF71 activates the terpene synthase gene CitTPS16 involved in the synthesis of E-geraniol in sweet orange fruit”
Residue numbers refer to the chain shown, from its start.

B1: GCC-box-like sequence 1 (dsDNA)
DNA 1: GAATGGGCGATAGAGCTCATACTTACCCGCCTCTCTTCACATTCAAACTTCTAATATTA
DNA 2: TAATATTAGAAGTTTGAATGTGAAGAGAGGCGGGTAAGTATGAGCTCTATCGCCCATTC
B2: mGCC-box-like sequence 1 (dsDNA)
DNA 1: B1 DNA 1 with C26A, C27A, C28A
DNA 2: B1 DNA 2 with G32T, G33T, G34T
B3: GCC-box-like sequence 2 (dsDNA)
DNA 1: AATTTACAAAATTATAGAAGTCAAATTACGACGTCGTAAATCTGGCGGGACTTTAATGG
DNA 2: CCATTAAAGTCCCGCCAGATTTACGACGTCGTAATTTGACTTCTATAATTTTGTAAATT
B4: mGCC-box-like sequence 2 (dsDNA)
DNA 1: B3 DNA 1 with G47A, G48A, G49A
DNA 2: B3 DNA 2 with C11T, C12T, C13T

Each binder was assayed against CitERF71 (Citrus sinensis Osbeck (Newhall sweet …, UniProt A0A067HCL9 1-233)) (assay: EMSA; LightShift Chemiluminescent EMSA kit per manufacturer and Nieuwenhuizen et al. 2015; buffer, salt, pH and temperature not stated). Settings: protein: recombinant; tags: N-terminal 6xHN (His) tag; label: 3' biotin; blunt.
Sequence of CitERF71 (Citrus sinensis Osbeck (A0A067HCL9 entry or part of it): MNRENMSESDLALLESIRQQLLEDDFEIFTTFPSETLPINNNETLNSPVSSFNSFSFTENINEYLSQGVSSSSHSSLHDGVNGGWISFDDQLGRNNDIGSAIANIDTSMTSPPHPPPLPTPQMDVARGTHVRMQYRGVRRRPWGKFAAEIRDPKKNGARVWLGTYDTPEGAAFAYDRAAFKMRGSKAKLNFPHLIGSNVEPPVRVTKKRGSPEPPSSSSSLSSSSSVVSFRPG

Binder	binding result
B1	binds
B2	no binding
B3	binds
B4	no binding
